Test results: paper PMC2756588

Target: Rvs167, P39743
Assay: SPOT array
Details: median of control spots 2707

Rvs167, P39743, sequence (P39743 419-482): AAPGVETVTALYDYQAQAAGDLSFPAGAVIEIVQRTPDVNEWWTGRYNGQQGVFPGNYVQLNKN

Binder | SPOT intensity
APPLPPTAPPPPSLP | 0
NPTKSPPPPPSPSTM | 0
PPIPNAPLSPAPAVP | 0
MSPLGAPPPPPHKDH | 0
SPLGAPPPPPHKDHL | 2
RTRRRPPPPPIPSTQ | 99

Target: T1, Abp1, P15891
T1 sequence (P15891 535-592, looked up): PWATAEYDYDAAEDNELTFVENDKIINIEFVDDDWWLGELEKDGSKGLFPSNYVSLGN
Assay: SPOT array
Details: median of control spots 935

Binder | SPOT intensity
APPLPPTAPPPPSLP | 0
NPTKSPPPPPSPSTM | 28
PPIPNAPLSPAPAVP | 0
MSPLGAPPPPPHKDH | 0
SPLGAPPPPPHKDHL | 0
RTRRRPPPPPIPSTQ | 212

Target: T2, Lsb4, P32793
T2 sequence (P32793 402-468, looked up): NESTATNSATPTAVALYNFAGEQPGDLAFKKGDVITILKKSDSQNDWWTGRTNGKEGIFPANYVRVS
Assay: SPOT array
Details: median of control spots 397

Binder | SPOT intensity
APPLPPTAPPPPSLP | 0
NPTKSPPPPPSPSTM | 4
PPIPNAPLSPAPAVP | 0
MSPLGAPPPPPHKDH | 0
SPLGAPPPPPHKDHL | 0
RTRRRPPPPPIPSTQ | 69

Target: T3, Boi1, P38041
T3 sequence (P38041 1-86, looked up): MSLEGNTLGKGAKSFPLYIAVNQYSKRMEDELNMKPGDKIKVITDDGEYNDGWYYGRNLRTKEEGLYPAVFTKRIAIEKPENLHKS
Assay: SPOT array
Details: median of control spots 1162

Binder | SPOT intensity
APPLPPTAPPPPSLP | 0
NPTKSPPPPPSPSTM | 0
PPIPNAPLSPAPAVP | 0
MSPLGAPPPPPHKDH | 0
SPLGAPPPPPHKDHL | 1
RTRRRPPPPPIPSTQ | 1

Target: Bem1-1, P29366
Sequence (P29366 55-141): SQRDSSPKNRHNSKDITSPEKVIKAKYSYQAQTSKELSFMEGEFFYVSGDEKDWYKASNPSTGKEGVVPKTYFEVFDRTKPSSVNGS
Assay: SPOT array
Details: median of control spots 4282

Binder | SPOT intensity
APPLPPTAPPPPSLP | 0
NPTKSPPPPPSPSTM | 1
PPIPNAPLSPAPAVP | 0
MSPLGAPPPPPHKDH | 0
SPLGAPPPPPHKDHL | 0
RTRRRPPPPPIPSTQ | 0

Target: T4, Bzz1-2, P38822
T4 sequence (P38822 568-633, looked up): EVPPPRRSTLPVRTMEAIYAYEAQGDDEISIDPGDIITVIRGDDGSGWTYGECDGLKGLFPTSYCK
Assay: SPOT array
Details: median of control spots 4538

Binder | SPOT intensity
APPLPPTAPPPPSLP | 0
NPTKSPPPPPSPSTM | 253
PPIPNAPLSPAPAVP | 1
MSPLGAPPPPPHKDH | 1
SPLGAPPPPPHKDHL | 0
RTRRRPPPPPIPSTQ | 2960

Target: Myo3, P36006
Assay: SPOT array
Details: median of control spots 468

Binder | SPOT intensity
APPLPPTAPPPPSLP | 537
NPTKSPPPPPSPSTM | 436
PPIPNAPLSPAPAVP | 483
MSPLGAPPPPPHKDH | 245
SPLGAPPPPPHKDHL | 327
RTRRRPPPPPIPSTQ | 487

Target: T5, Nbp2, Q12163
T5 sequence (Q12163 103-180, looked up): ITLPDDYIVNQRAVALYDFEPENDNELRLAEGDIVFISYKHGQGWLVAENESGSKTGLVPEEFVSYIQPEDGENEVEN
Assay: SPOT array
Details: median of control spots 357

Binder | SPOT intensity
APPLPPTAPPPPSLP | 0
NPTKSPPPPPSPSTM | 0
PPIPNAPLSPAPAVP | 0
MSPLGAPPPPPHKDH | 0
SPLGAPPPPPHKDHL | 0
RTRRRPPPPPIPSTQ | 107

Target: T6, Sla1-3, P32790
T6 sequence (P32790 344-424, looked up): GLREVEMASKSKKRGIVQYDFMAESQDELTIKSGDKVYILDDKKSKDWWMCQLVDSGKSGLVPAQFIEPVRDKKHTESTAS
Assay: SPOT array
Details: median of control spots 5475

Binder | SPOT intensity
APPLPPTAPPPPSLP | 3
NPTKSPPPPPSPSTM | 1
PPIPNAPLSPAPAVP | 0
MSPLGAPPPPPHKDH | 0
SPLGAPPPPPHKDHL | 0
RTRRRPPPPPIPSTQ | 1980

Target: Bem1-2, P29366
Sequence (P29366 139-227): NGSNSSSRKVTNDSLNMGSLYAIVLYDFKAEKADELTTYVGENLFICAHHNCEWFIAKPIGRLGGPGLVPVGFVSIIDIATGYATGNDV
Assay: SPOT array
Details: median of control spots 4347

Binder | SPOT intensity
APPLPPTAPPPPSLP | 89
NPTKSPPPPPSPSTM | 0
PPIPNAPLSPAPAVP | 0
MSPLGAPPPPPHKDH | 0
SPLGAPPPPPHKDHL | 0
RTRRRPPPPPIPSTQ | 79

Target: T7, Hse1, P38753
T7 sequence (P38753 208-285, looked up): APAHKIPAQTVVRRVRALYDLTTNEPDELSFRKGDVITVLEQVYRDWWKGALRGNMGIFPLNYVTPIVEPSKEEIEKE
Assay: SPOT array
Details: median of control spots 1727

Binder | SPOT intensity
APPLPPTAPPPPSLP | 12
NPTKSPPPPPSPSTM | 0
PPIPNAPLSPAPAVP | 0
MSPLGAPPPPPHKDH | 0
SPLGAPPPPPHKDHL | 0
RTRRRPPPPPIPSTQ | 63

Target: T8, Myo5, Q04439
T8 sequence (Q04439 1072-1160, looked up): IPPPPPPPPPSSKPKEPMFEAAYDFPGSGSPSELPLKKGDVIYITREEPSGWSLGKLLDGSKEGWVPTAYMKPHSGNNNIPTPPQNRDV
Assay: SPOT array
Details: median of control spots 471

Binder | SPOT intensity
APPLPPTAPPPPSLP | 559
NPTKSPPPPPSPSTM | 223
PPIPNAPLSPAPAVP | 443
MSPLGAPPPPPHKDH | 108
SPLGAPPPPPHKDHL | 81
RTRRRPPPPPIPSTQ | 243

Target: T9, Cdc25, P04821
T9 sequence (P04821 50-136, looked up): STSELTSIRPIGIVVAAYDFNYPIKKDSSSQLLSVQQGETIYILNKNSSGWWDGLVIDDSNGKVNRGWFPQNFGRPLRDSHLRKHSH
Assay: SPOT array
Details: median of control spots 969

Binder | SPOT intensity
APPLPPTAPPPPSLP | 2
NPTKSPPPPPSPSTM | 3
PPIPNAPLSPAPAVP | 2
MSPLGAPPPPPHKDH | 0
SPLGAPPPPPHKDHL | 0
RTRRRPPPPPIPSTQ | 3

Target: T10, Sla1-2, P32790
T10 sequence (P32790 60-140, looked up): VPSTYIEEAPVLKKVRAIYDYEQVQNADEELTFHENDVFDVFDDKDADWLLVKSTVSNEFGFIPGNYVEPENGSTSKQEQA
Assay: SPOT array
Details: median of control spots 712

Binder | SPOT intensity
APPLPPTAPPPPSLP | 0
NPTKSPPPPPSPSTM | 0
PPIPNAPLSPAPAVP | 0
MSPLGAPPPPPHKDH | 0
SPLGAPPPPPHKDHL | 0
RTRRRPPPPPIPSTQ | 3

Target: T11, Lsb1, P53281
T11 sequence (P53281 45-122, looked up): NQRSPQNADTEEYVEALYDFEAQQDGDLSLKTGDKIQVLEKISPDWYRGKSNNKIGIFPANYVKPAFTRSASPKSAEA
Assay: SPOT array
Details: median of control spots 388

Binder | SPOT intensity
APPLPPTAPPPPSLP | 0
NPTKSPPPPPSPSTM | 0
PPIPNAPLSPAPAVP | 0
MSPLGAPPPPPHKDH | 0
SPLGAPPPPPHKDHL | 0
RTRRRPPPPPIPSTQ | 800

Target: T12, Pex13, P80667
T12 sequence (P80667 295-386, looked up): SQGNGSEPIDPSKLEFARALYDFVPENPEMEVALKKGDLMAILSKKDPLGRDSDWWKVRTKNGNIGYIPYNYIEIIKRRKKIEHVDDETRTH
Assay: SPOT array
Details: median of control spots 1341

Binder | SPOT intensity
APPLPPTAPPPPSLP | 4
NPTKSPPPPPSPSTM | 43
PPIPNAPLSPAPAVP | 1
MSPLGAPPPPPHKDH | 0
SPLGAPPPPPHKDHL | 0
RTRRRPPPPPIPSTQ | 21

Target: T13, Cyk3, Q07533
T13 sequence (Q07533 1-83, looked up): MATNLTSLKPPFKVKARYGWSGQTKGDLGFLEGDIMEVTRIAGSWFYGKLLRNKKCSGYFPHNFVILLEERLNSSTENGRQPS
Assay: SPOT array
Details: median of control spots 1451

Binder | SPOT intensity
APPLPPTAPPPPSLP | 0
NPTKSPPPPPSPSTM | 1
PPIPNAPLSPAPAVP | 0
MSPLGAPPPPPHKDH | 0
SPLGAPPPPPHKDHL | 0
RTRRRPPPPPIPSTQ | 3

Target: T14, Bud14, P27637
T14 sequence (P27637 247-328, looked up): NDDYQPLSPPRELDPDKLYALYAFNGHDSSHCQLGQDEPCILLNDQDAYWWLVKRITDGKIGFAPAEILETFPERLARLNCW
Assay: SPOT array
Details: median of control spots 956

Binder | SPOT intensity
APPLPPTAPPPPSLP | 0
NPTKSPPPPPSPSTM | 2
PPIPNAPLSPAPAVP | 2
MSPLGAPPPPPHKDH | 0
SPLGAPPPPPHKDHL | 0
RTRRRPPPPPIPSTQ | 16

Target: T15, Hof1, Q05080
T15 sequence (Q05080 590-669, looked up): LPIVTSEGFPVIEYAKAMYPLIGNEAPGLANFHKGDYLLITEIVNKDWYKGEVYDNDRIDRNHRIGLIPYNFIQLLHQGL
Assay: SPOT array
Details: median of control spots 4086

Binder | SPOT intensity
APPLPPTAPPPPSLP | 51
NPTKSPPPPPSPSTM | 0
PPIPNAPLSPAPAVP | 0
MSPLGAPPPPPHKDH | 0
SPLGAPPPPPHKDHL | 0
RTRRRPPPPPIPSTQ | 8

Target: T16, Pin3, Q06449
T16 sequence (Q06449 53-122, looked up): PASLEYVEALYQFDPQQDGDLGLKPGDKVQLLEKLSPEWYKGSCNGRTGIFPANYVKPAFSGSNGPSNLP
Assay: SPOT array
Details: median of control spots 2171

Binder | SPOT intensity
APPLPPTAPPPPSLP | 0
NPTKSPPPPPSPSTM | 109
PPIPNAPLSPAPAVP | 0
MSPLGAPPPPPHKDH | 0
SPLGAPPPPPHKDHL | 0
RTRRRPPPPPIPSTQ | 10

Target: T17, Fus1, P11710
T17 sequence (P11710 432-512, looked up): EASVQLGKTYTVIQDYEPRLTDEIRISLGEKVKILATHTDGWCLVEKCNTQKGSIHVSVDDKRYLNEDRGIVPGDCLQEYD
Assay: SPOT array
Details: median of control spots 1200

Binder | SPOT intensity
APPLPPTAPPPPSLP | 0
NPTKSPPPPPSPSTM | 1
PPIPNAPLSPAPAVP | 0
MSPLGAPPPPPHKDH | 0
SPLGAPPPPPHKDHL | 0
RTRRRPPPPPIPSTQ | 13

Target: T18, Bzz1-1, P38822
T18 sequence (P38822 478-572, looked up): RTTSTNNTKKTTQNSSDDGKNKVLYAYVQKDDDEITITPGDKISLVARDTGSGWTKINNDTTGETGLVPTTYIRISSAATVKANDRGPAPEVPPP
Assay: SPOT array
Details: median of control spots 4446

Binder | SPOT intensity
APPLPPTAPPPPSLP | 0
NPTKSPPPPPSPSTM | 124
PPIPNAPLSPAPAVP | 0
MSPLGAPPPPPHKDH | 0
SPLGAPPPPPHKDHL | 0
RTRRRPPPPPIPSTQ | 1470

Target: GST
Assay: SPOT array
Details: median of control spots 978

Binder | SPOT intensity
APPLPPTAPPPPSLP | 1
NPTKSPPPPPSPSTM | 1
PPIPNAPLSPAPAVP | 0
MSPLGAPPPPPHKDH | 1
SPLGAPPPPPHKDHL | 1
RTRRRPPPPPIPSTQ | 1

Target: T19, Boi2, P39969
T19 sequence (P39969 32-116, looked up): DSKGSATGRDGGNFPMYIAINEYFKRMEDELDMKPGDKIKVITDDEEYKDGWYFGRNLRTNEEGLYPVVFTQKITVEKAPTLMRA
Assay: SPOT array
Details: median of control spots 1161

Binder | SPOT intensity
APPLPPTAPPPPSLP | 0
NPTKSPPPPPSPSTM | 0
PPIPNAPLSPAPAVP | 0
MSPLGAPPPPPHKDH | 0
SPLGAPPPPPHKDHL | 0
RTRRRPPPPPIPSTQ | 0

Target: T20, Bbc1, P47068
T20 sequence (P47068 1-78, looked up): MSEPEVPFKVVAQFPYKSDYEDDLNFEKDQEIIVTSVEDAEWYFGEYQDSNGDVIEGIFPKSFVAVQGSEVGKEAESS
Assay: SPOT array
Details: median of control spots 796

Binder | SPOT intensity
APPLPPTAPPPPSLP | 0
NPTKSPPPPPSPSTM | 0
PPIPNAPLSPAPAVP | 0
MSPLGAPPPPPHKDH | 0
SPLGAPPPPPHKDHL | 0
RTRRRPPPPPIPSTQ | 434

Target: T21, Lsb3, P43603
T21 sequence (P43603 385-451, looked up): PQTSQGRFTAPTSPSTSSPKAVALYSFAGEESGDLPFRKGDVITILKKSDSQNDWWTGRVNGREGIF
Assay: SPOT array
Details: median of control spots 406

Binder | SPOT intensity
APPLPPTAPPPPSLP | 0
NPTKSPPPPPSPSTM | 0
PPIPNAPLSPAPAVP | 0
MSPLGAPPPPPHKDH | 0
SPLGAPPPPPHKDHL | 0
RTRRRPPPPPIPSTQ | 56

Target: Sho1, P40073
Sequence (P40073 287-367): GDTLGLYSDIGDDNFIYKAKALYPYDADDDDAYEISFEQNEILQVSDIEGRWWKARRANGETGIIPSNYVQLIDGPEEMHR
Assay: SPOT array
Details: median of control spots 1148

Binder | SPOT intensity
APPLPPTAPPPPSLP | 0
NPTKSPPPPPSPSTM | 2
PPIPNAPLSPAPAVP | 0
MSPLGAPPPPPHKDH | 0
SPLGAPPPPPHKDHL | 1
RTRRRPPPPPIPSTQ | 83
